The record followed here is patent US20160208005A1 (Astellas, published 2016).

The target in assay [1] is T1, human TSLP receptor (human, UniProt Q9HC73 23-371).
T1 sequence (looked up): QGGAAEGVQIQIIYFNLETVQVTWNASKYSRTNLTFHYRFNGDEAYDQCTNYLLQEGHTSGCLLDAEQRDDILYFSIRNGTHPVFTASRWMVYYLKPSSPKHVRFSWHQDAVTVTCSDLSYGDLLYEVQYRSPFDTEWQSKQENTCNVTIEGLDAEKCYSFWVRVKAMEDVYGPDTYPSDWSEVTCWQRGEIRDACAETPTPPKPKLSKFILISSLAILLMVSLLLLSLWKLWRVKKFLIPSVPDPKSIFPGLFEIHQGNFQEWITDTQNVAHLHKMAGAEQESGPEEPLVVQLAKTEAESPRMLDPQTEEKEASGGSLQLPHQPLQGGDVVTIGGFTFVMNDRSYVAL
The experiment in a line: cell-based or functional assay.

Assay [2] addresses T1, human TSLP receptor. Description: cell-based or functional assay. This is another data set of the same source.
Assay [3] deals with T2, human TSLP receptor-mouse Fc fusion protein (human (receptor part), mouse (Fc part)).
T2 construct: Expressed in FreeStyle 293 cells and purified on Protein G; also called fusion protein of human TSLP receptor and mouse Fc
T2 chain: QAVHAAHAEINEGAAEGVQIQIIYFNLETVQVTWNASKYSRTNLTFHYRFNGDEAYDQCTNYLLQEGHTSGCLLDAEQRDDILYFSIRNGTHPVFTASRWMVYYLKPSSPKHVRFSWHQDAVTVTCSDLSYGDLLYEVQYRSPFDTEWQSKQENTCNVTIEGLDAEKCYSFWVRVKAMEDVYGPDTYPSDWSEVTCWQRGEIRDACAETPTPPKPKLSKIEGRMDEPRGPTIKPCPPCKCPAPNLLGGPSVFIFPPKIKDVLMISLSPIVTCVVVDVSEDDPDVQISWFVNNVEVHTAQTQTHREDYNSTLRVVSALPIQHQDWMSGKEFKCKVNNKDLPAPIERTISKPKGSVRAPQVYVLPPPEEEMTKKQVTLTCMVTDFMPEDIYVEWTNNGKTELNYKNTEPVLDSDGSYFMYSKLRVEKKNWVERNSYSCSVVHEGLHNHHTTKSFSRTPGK
Description: SPR (Biacore 2000), antibody captured, human TSLP receptor-mouse Fc as analyte; reference TSLPR-012_141. How it is done:
(§1) In the SPR analysis, the analysis was performed using Biacore (registered trademark) 2000 (GE Healthcare Japan Corporation). Respective anti-human TSLP receptor antibodies were immobilized on the surface of a sensor chip CM5 using a Human Antibody Capture Kit and an Amine Coupling Kit (GE Healthcare Japan Corporation). The human TSLP receptor-mouse Fc fusion protein obtained in Example 1 was serially diluted with an HBS-EP solution (GE Healthcare Japan Corporation), and 100 μL of the solution was added to the flow path at a flow rate of 50 μL/min. By this measurement system, binding rate constant (ka), dissociation rate constant (kd), and dissociation constant (KD) of the human TSLP receptor-mouse Fc fusion protein and the anti-human TSLP receptor antibody were calculated using data analysis software (BIA Evaluation) (Table 1).
Background: Surface plasmon resonance follows binding to a sensor surface in real time, without labels.

Assay [4] concerns the target T2, human TSLP receptor-mouse Fc fusion …. The experiment in a line: SPR (Biacore 2000), antibody captured on CM5 chip by Human Antibody Capture Kit, human TSLP receptor-mouse Fc as analyte. As to the method:
as §1

B1: fully human T7-27 (antibody, human IgG1, kappa, V domains shown)
VH: EVQLLESGGGLVQPGGSLRLSCAASGFTFRSSAMHWVRQAPGKGLKWVSSVSGSGAGTYYADSVKGRFTISRDNPKNTLYLQMNSLRAEDTAVYYCVKEGGSRGFDYWGQGTLVTVSS
VL: DIQMTQSPSSLSASVGDRVTITCRASQDISNYLAWFQQKPGKAPKSLIYTASSLQSGVPSKFSGSGSGTDFTLTISSLQPEDFATYYCQQYNLYPPTFGQGTKVEIKR
modifications: deletion of lysine of the heavy chain C terminal occurred in a large part of the purified antibody
notes: Human IgG1/kappa; Expressed in FreeStyle 293 or CHO-K1SV cells; also called fully human antibody of T7-27
On to B1, for which, in the assay with human TSLP receptor [1], the “fold inhibition activity against TSLP-induced MDC proteins production compared to TSLPR-012_141” value was ~9 fold and the “fold inhibition activity against human TSLP-induced TARC mRNA expression compared to TSLPR-012_141” value was ~12 fold. The “IC50 (ng/mL); TSLP-induced MDC proteins production inhibition using human PBMC (5 ng/mL human TSLP mutant-Flag protein)” value with human TSLP receptor [2] amounted to 0.12 ng/mL. Further, the “fold binding activity compared to TSLPR-012_141” value in assay [3] was ~3 fold. Moreover, in assay [4], the affinity, expressed as Kd, was 4.1 nM and the off-rate constant (koff) (in general, the first-order rate constant of dissociation) turned out to be 0.000125 s⁻¹.
